Test results published in patent US20240342320A1 (GUANGZHOU GENBIONOVA MEDICAL TECHNOLOGY, published 2024).
Positions of bridges follow the written chain, without caps; N, C: chain ends. Non-standard residues stand in square brackets, D forms with d. Primed or numbered codes have the meaning given here. No end group written: not given here. PEG4′ = not defined here; NOTA′ = NOTA chelator

Tests used:
Integrin α6β4 protein [1] = assay: MST, dye-labelled integrin α6β4, run 2
Method: (§1) The affinity between these 18 polypeptides and integrin α6β4 was detected by microscale thermophoresis (MST) method as follows: [0053] 1) Integrin α6β4 protein was dissolved to 800 nM, and polypeptide was dissolved to 100 μM. [0054] 2) A RED-tris-NTA second-generation dye was diluted to 100 nM by using the MO series RED-tris-NTA protein labeling kit. [0055] 3) 100 μl α6β4 protein was mixed with 50 μl dye and incubated at room temperature for 30 min, so that the α6β4 protein binds to the dye. [0056] 4) 10 μl polypeptide was transferred into a PCR tube, and was diluted with PBST (containing 0.05% Tween 20) at a ratio of 1:1 to 16 gradients of concentrations. [0057] 5) 3 μl protein/dye mixture was transferred into a PCR tube, 3 μl of 16 different concentrations of polypeptides was respectively added and mixed well. [0058] 6) The mixture was absorbed by capillary and loaded on machine (instrument model Monolith NT.115) to assay, parameters were set as 80% LED/excitation power and medium MST power. [0059] 7) MO. Affinity Analysis software was used to calculate the equilibrium dissociation constant KD between α6β4 protein and polypeptide by KD fitting mode.

Integrin α6β4 protein [2] = assay: MST, ratio of mean KD against …
Method: as §1

Integrin α6β4 protein [3] = assay: MST, dye-labelled integrin α6β4, mean of 3 runs
Method: as §1

Integrin α6β4 protein [4] = assay: MST, dye-labelled integrin α6β4, run 1
Method: as §1

Integrin α6β4 protein [5] = assay: MST, dye-labelled integrin α6β4, run 3
Method: as §1

Integrin α6β1 = assay: MST (FIG. 2B), integrin α6β1
Integrin α6β4 protein [6] = assay: MST, dye-labelled integrin α6β4; unrounded mean of the table's 0.02 µM
Method: as §1

Integrin α6β4 protein [7] = assay: MST, integrin α6β4

Chain of Integrin α6β1 (chain, as listed by the source, chain 1 of 2): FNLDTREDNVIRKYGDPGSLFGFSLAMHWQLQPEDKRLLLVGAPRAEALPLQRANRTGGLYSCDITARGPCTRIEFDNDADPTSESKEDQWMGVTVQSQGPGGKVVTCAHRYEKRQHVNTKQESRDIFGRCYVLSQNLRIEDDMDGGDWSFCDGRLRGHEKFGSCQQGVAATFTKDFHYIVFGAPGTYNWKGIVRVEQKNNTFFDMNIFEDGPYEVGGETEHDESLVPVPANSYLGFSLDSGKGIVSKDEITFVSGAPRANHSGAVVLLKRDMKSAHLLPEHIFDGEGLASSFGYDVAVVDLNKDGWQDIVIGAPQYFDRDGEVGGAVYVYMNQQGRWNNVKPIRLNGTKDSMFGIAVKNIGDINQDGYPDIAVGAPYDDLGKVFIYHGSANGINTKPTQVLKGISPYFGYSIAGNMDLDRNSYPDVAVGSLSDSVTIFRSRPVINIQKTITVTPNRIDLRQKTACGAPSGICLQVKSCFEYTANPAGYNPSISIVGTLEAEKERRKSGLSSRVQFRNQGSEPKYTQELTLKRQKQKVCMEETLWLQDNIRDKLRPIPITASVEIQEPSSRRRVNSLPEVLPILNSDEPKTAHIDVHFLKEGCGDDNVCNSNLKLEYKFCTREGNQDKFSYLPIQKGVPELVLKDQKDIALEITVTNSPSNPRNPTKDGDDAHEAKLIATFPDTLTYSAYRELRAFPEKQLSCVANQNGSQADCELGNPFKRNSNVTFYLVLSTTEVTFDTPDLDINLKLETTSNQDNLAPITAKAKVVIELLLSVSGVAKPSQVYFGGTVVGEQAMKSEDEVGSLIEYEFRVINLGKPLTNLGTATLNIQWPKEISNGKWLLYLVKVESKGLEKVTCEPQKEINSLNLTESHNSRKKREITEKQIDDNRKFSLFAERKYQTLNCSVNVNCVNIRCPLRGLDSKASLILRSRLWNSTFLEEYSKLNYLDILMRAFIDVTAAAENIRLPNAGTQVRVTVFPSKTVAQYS
Chain of Integrin α6β1 (chain, as listed by the source, chain 2 of 2): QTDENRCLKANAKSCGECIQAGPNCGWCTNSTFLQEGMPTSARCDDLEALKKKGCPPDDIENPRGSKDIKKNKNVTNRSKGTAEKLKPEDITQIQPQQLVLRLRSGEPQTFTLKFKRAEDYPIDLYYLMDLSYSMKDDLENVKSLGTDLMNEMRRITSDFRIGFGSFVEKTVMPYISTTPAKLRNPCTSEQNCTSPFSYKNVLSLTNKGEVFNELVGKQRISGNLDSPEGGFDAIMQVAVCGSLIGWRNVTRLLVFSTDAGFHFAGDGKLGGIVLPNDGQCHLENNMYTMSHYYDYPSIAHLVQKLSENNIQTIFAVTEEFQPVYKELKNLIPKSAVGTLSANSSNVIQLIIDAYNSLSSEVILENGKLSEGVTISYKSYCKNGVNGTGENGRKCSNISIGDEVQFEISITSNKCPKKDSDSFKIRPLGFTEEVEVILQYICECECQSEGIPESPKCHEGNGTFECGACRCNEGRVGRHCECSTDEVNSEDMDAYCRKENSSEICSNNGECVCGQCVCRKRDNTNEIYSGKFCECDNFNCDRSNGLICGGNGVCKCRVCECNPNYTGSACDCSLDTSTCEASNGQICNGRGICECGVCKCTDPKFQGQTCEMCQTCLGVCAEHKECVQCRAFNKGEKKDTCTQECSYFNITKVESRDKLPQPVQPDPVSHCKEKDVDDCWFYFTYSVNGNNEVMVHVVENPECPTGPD

CRWYDENAC (disulfide 1-9 (inferred), also called P1) was tested, and the Kd (Integrin α6β4 protein [1]) was 6.52 µM, the “Affinity relative to RWY” value (Integrin α6β4 protein [2]) was 1 fold and the Kd (Integrin α6β4 protein [3]) was 6.97 µM. The Kd (Integrin α6β4 protein [4]) was 8.59 µM and the Kd (Integrin α6β4 protein [5]) was 5.81 µM.

In the case of CAWYDENAC (disulfide 1-9 (inferred), also called P2), the Kd (Integrin α6β4 protein [1]) is reported as 12.1 µM, the “Affinity relative to RWY” value (Integrin α6β4 protein [2]) is reported as 1.06 fold and the Kd (Integrin α6β4 protein [3]) is reported as 6.58 µM. For the same binder, the Kd (Integrin α6β4 protein [4]) was 4.03 µM and the Kd (Integrin α6β4 protein [5]) was 3.58 µM.

CRAYDENAC (disulfide 1-9 (inferred), also called P3) was tested, and the Kd (Integrin α6β4 protein [1]) was 11.8 µM, the “Affinity relative to RWY” value (Integrin α6β4 protein [2]) was 0.52 fold and the Kd (Integrin α6β4 protein [3]) was 13.3 µM. It also gave a Kd (Integrin α6β4 protein [4]) of 14.4 µM and a Kd (Integrin α6β4 protein [5]) of 13.8 µM.

With CRWYAENAC (disulfide 1-9 (inferred), also called P5) the Kd (Integrin α6β4 protein [1]) was 0.22 µM, the “Affinity relative to RWY” value (Integrin α6β4 protein [2]) was 17 fold and the Kd (Integrin α6β4 protein [3]) was 0.41 µM. It also gave a Kd (Integrin α6β4 protein [4]) of 0.36 µM and a Kd (Integrin α6β4 protein [5]) of 0.65 µM.

CRWYDANAC (disulfide 1-9 (inferred), also called P6) was tested, and the Kd (Integrin α6β4 protein [1]) was 7.99 µM, the “Affinity relative to RWY” value (Integrin α6β4 protein [2]) was 1.61 fold and the Kd (Integrin α6β4 protein [3]) was 4.34 µM. It also gave a Kd (Integrin α6β4 protein [4]) of 1.21 µM and a Kd (Integrin α6β4 protein [5]) of 3.83 µM.

CRWYDEAAC (disulfide 1-9 (inferred), also called P7) was tested, and the Kd (Integrin α6β4 protein [1]) was 0.25 µM, the “Affinity relative to RWY” value (Integrin α6β4 protein [2]) was 11.2 fold and the Kd (Integrin α6β4 protein [3]) was 0.62 µM. It also gave a Kd (Integrin α6β4 protein [4]) of 0.25 µM and a Kd (Integrin α6β4 protein [5]) of 1.37 µM.

In the case of RWYDEN (Straight-chain peptide; also called P9), the Kd (Integrin α6β4 protein [1]) is reported as 8.73 µM, the “Affinity relative to RWY” value (Integrin α6β4 protein [2]) is reported as 0.66 fold and the Kd (Integrin α6β4 protein [3]) is reported as 10.5 µM. It also gave a Kd (Integrin α6β4 protein [4]) of 9.69 µM and a Kd (Integrin α6β4 protein [5]) of 13.1 µM.

In the case of RWYDANA (Straight-chain peptide; also called P10), the Kd (Integrin α6β4 protein [1]) is reported as 17.5 µM, the “Affinity relative to RWY” value (Integrin α6β4 protein [2]) is reported as 0.23 fold and the Kd (Integrin α6β4 protein [3]) is reported as 30.7 µM. For the same binder, the Kd (Integrin α6β4 protein [4]) was 62.1 µM and the Kd (Integrin α6β4 protein [5]) was 12.4 µM.

In the case of RWYDAN (Straight-chain peptide; also called P11), the Kd (Integrin α6β4 protein [1]) is reported as 23.2 µM, the “Affinity relative to RWY” value (Integrin α6β4 protein [2]) is reported as 0.22 fold and the Kd (Integrin α6β4 protein [3]) is reported as 31.2 µM. For the same binder, the Kd (Integrin α6β4 protein [4]) was 34.6 µM and the Kd (Integrin α6β4 protein [5]) was 35.7 µM.

With RWYDEA (Straight-chain peptide; also called P12) the Kd (Integrin α6β4 protein [1]) was 2.49 µM, the “Affinity relative to RWY” value (Integrin α6β4 protein [2]) was 2.2 fold and the Kd (Integrin α6β4 protein [3]) was 3.16 µM. It also gave a Kd (Integrin α6β4 protein [4]) of 5.26 µM and a Kd (Integrin α6β4 protein [5]) of 1.74 µM.

With RWYDE (Straight-chain peptide; also called P13) the Kd (Integrin α6β4 protein [1]) was 78.8 µM, the “Affinity relative to RWY” value (Integrin α6β4 protein [2]) was 0.11 fold and the Kd (Integrin α6β4 protein [3]) was 64.4 µM. For the same binder, the Kd (Integrin α6β4 protein [4]) was 14.7 µM and the Kd (Integrin α6β4 protein [5]) was 99.6 µM.

With RWYDA (Straight-chain peptide; also called P14) the Kd (Integrin α6β4 protein [1]) was 4.69 µM, the “Affinity relative to RWY” value (Integrin α6β4 protein [2]) was 1.38 fold and the Kd (Integrin α6β4 protein [3]) was 5.06 µM. The Kd (Integrin α6β4 protein [4]) was 6.28 µM and the Kd (Integrin α6β4 protein [5]) was 4.22 µM.

B1: RWYD (peptide)
peptide: RWYD
notes: also called P15; linear quaternary polypeptide RWYD
For B1, the Kd (Integrin α6β4 protein [1]) was 0.018 µM, the “Affinity relative to RWY” value (Integrin α6β4 protein [2]) was 327 fold and the Kd (Integrin α6β4 protein [3]) was 0.02 µM. It also gave a Kd (Integrin α6β1) of 0.0531 µM, a Kd (Integrin α6β4 protein [6]) of 0.0218 µM and a Kd (Integrin α6β4 protein [4]) of 0.02 µM. It also gave a Kd (Integrin α6β4 protein [5]) of 0.026 µM.

With RWYAEN (Straight-chain peptide; also called P16) the Kd (Integrin α6β4 protein [1]) was 6.08 µM, the “Affinity relative to RWY” value (Integrin α6β4 protein [2]) was 0.9 fold and the Kd (Integrin α6β4 protein [3]) was 7.71 µM. It also gave a Kd (Integrin α6β4 protein [4]) of 7.31 µM and a Kd (Integrin α6β4 protein [5]) of 9.74 µM.

B2: (RWYD-PEG4)2-K-K-NOTA (peptide)
peptide: RWYD
modifications: not fully specified; each RWYD carries PEG4 at its C-terminus; two RWYD-PEG4 units are joined through lysine, followed by K-NOTA: (RWYD-PEG4)2-K-K-NOTA
notes: also called RD2; RD2 dimer
For B2, the Kd (Integrin α6β4 protein [7]) was 0.0648 µM and the “fold increase of affinity against RWYD-PEG4-K-NOTA” value (Integrin α6β4 protein [7]) was roughly 10 fold.

B3: RWYD-PEG4-K-NOTA (peptide)
peptide: RWYD[PEG4′]K-{NOTA′}
notes: The unlabelled form was used in MST; also called RD
B3 was tested, and the Kd (Integrin α6β4 protein [7]) was 0.642 µM.
